B1: zebrafish Otop1 (natural protein, UniProt Q7ZWK8 1-586, looked up)
chain: MVEHGGTDSMWLNKYNPAAASSASSSSSSDAENKLFSRLKVSLTKKYPQKNAELLSAQYGTNLLLLGVSVMLALAAQSGPVKEEHLLSFITVLMLVQLVWMLCYMIRRERERSPVPERDAHAGASWIRGGLTMLALLSLIMDAFRIGYFVGYHSCISAALGVYPIVHALHTISQVHFLWFHIKDVIKKYETFERFGVIHAVFTNLLLWCNGVMSETEHFMHNHRRRLIEMGYANLSTVDVQPHCNCTTSVCSMFSTSLYYLYPFNIEYHIFVSAMLFVMWKNIGRTLDRHSNRKRRSTGSTGLLLGPLGGLVALASSVSVLVVYLIHLEKTEEMHEAAVSMFYYYGVAMMACMCVGSGTGLLVYRMENRPMDTGSNPARTLDTELLLASSLGSWLMSWCSVVASVAEAGQKSPSFSWTSLTYSLLLVLEKCIQNLFIVESLYRRHSEEEEDAAAPQVFSVAVPPYDGILNHGYEAHDKHREAEPAAGSHALSRKQPDAPLPAGQRLDVTPGRKRQILKNICMFLFMCNISLWILPAFGCRPQYDNPLENETFGTSVWTTVLNVAIPLNLFYRMHSVASLFEVFRKV

Experiments:
[1] = target: chicken Otop3 (chicken); experiment: cryo-EM structure
[2] = target: the molecule itself; experiment: cryo-EM structure

Molecule	stoichiometry N [1]	stoichiometry N [2]
chicken Otop3 (natural protein)	2	
B1		2

— paper PMC6564688 (Nature structural & molecular biology, 2019)
